The values below come from US5484732, “Transcription factor for regulation of the development of skin and hair” (The Regents of the University of California, dated 1996).

The series deals with the molecule itself. Description: DSS crosslinking in solution of 35S-labelled protein translated in vitro, SDS/polyacrylamide gel (self-association). As to the method:
With respect to (1), the effect of the Skn-1i inhibitory region on dimerization in solution was assayed by the ability of a homobifunctional crosslinking agent [disuccnidyl suberate (DSS)] to crosslink in vitro translated proteins.
Specifically, approximately 100,000 cpm of ^35S-labeled Skn-1i, Δ32Skn-1i, 1–99 (N/T) Skn1-i and Δ60 (N/T) Skn1-i proteins were added separately to […] of binding buffer (10 mM HEPES [pH7.8], 50 mM K CI, 5% glycerol). After 15 minutes at room temperature, […] of DSS (suspended in 5 mg/ml DMSO) or DMSO alone was added to each of the reactions. After 5 minutes, the reaction was stopped by adding SDS sample buffer to each which was then boiled prior to analyses on SDS/polyacrylamide gels. To quantitate crosslinking efficiency, monomers ("M" on FIG. 12) and dimers ("D" on FIG. 12) were excised from the gel and counted by scintillation counting.

B1: Δ32 Skn-1i (other)
chain: LQPNLLSFPQQQSTLLLPQTGPGLTSQAVGRPGLSGSSLEPHLEASQHLPGPKHLPGPGGNDEPTDLEELEKFAKTFKQRRIKLGFTQGDVGLAMGKLYGNDFSQTTISRFEALNLSFKNMCKLKPLLEKWLNDAESSPADPSASTPSSYPTLSEVFGRKRKKRTSIETNIRLTLEKRFQDNPKPSSEEISMIAEQLSMEKEVVRVWFCNRRQKEKRINCPVATPVKPPIYNSRLVSPSGSLGSLSVPPVHSTMPGTVTSSCSPGNNSRPSSPGSGLHASSPTASQNNSKAAMNPSSAAFNSSGSWYRWNHPAYLH
For B1, the binding result was “no binding”.
